Experimental data: patent US20230250154A1
Numbering of substitutions follows the chain as printed. In names and notes the source's numbering stands.

B1: Variant A2M, bait region SEQ ID NO 137, P01023 24-1474 (protein)
chain: SVSGKPQYMVLVPSLLHTETTEKGCVLLSYLNETVTVSASLESVRGNRSLFTDLEAENDVLHCVAFAVPKSSSNEEVMFLTVQVKGPTQEFKKRTTVMVKNEDSLVFVQTDKSIYKPGQTVKFRVVSMDENFHPLNELIPLVYIQDPKGNRIAQWQSFQLEGGLKQFSFPLSSEPFQGSYKVVVQKKSGGRTEHPFTVEEFVLPKFEVQVTVPKIITILEEEMNVSVCGLYTYGKPVPGHVTVSICRKYSDASDCHGEDSQAFCEKFSGQLNSHGCFYQQVKTKVFQLKRKEYEMKLHTEAQIQEEGTVVELTGRQSSEITRTITKLSFVKVDSHFRQGIPFFGQVRLVDGKGVPIPNKVIFIRGNEANYYSNATTDEHGLVQFSINTTNVMGTSLTVRVNYKDRSPCYGYQWVSEEHEEAHHTAYLVFSPSKSFVHLEPMSHELPCGHTQTVQAHYILNGGTLLGLKKLSFYYLIMAKGGIVRTGTHGLLVKQEDMKGHFSISIPVKSDIAPVARLLIYAVLPTGDVIGDSAKYDVENCLANKVDLSFSPSQSLPASHAHLRVTAAPQSVCALRAVDQSVLLMKPDAELSASSVYNLLPEKDLTGFPGPLNDQDDEDCINRHNVYINGITYTPVSSTNEKDMYSFLEDMGLKAFTNSKIRKPKMCPQLEQYEMHGPSEDLVVQIKEEEGLGSIPENFFGVSELEGRGSVEEPHTKLRKYFPETWIWDLVVVNSAGVAEVGVTVPDTITEWKAGAFCLSEDAGLGISSTASLRAFQPFFVELTMPYSVIRGEAFTLKATVLNYLPKCIRVSVQLEASPAFLAVPVEKEQAPHCICANGRQTVSWAVTPKSLGNVNFTVSAEALESQELCGTEVPSVPEHGRKDTVIKPLLVEPEGLEKETTFNSLLCPSGGEVSEELSLKLPPNVVEESARASVSVLGDILGSAMQNTQNLLQMPYGCGEQNMVLFAPNIYVLDYLNETQQLTPEIKSKAIGYLNTGYQRQLNYKHYDGSYSTFGERYGRNQGNTWLTAFVLKTFAQARAYIFIDEAHITQALIWLSQRQKDNGCFRSSGSLLNNAIKGGVEDEVTLSAYITIALLEIPLTVTHPVVRNALFCLESAWKTAQEGDHGSHVYTKALLAYAFALAGNQDKRKEVLKSLNEEAVKKDNSVHWERPQKPKAPVGHFYEPQAPSAEVEMTSYVLLAYLTAQPAPTSEDLTSATNIVKWITKQQNAQGGFSSTQDTVVALHALSKYGAATFTRTGKAAQVTIQSSGTFSSKFQVDNNNRLLLQQVSLPELPGEYSMKVTGEGCVYLQTSLKYNILPEKEEFPFALGVQTLPQTCDEPKAHTSFQISLSVSYTGSRSASNMAIVDVKMVSGFIPLKPTVKMLERSNHVSRTEVSSNHVLIYLDKVSNQTLSLFFTVLQDVPVRDLKPAIVKVYDYYETDEFAIAEYNAPCSKDLGNADYKDDDDKGASHHHHHH
B2: Variant A2M, bait region SEQ ID NO 138, P01023 24-1474 (protein)
chain: B1 chain with K686E, E687G, E689G, G690E, L691G, G692E, S693G, S702K, L704E, R707L
B3: Variant A2M, bait region SEQ ID NO 142, P01023 24-1474 (protein)
chain: SVSGKPQYMVLVPSLLHTETTEKGCVLLSYLNETVTVSASLESVRGNRSLFTDLEAENDVLHCVAFAVPKSSSNEEVMFLTVQVKGPTQEFKKRTTVMVKNEDSLVFVQTDKSIYKPGQTVKFRVVSMDENFHPLNELIPLVYIQDPKGNRIAQWQSFQLEGGLKQFSFPLSSEPFQGSYKVVVQKKSGGRTEHPFTVEEFVLPKFEVQVTVPKIITILEEEMNVSVCGLYTYGKPVPGHVTVSICRKYSDASDCHGEDSQAFCEKFSGQLNSHGCFYQQVKTKVFQLKRKEYEMKLHTEAQIQEEGTVVELTGRQSSEITRTITKLSFVKVDSHFRQGIPFFGQVRLVDGKGVPIPNKVIFIRGNEANYYSNATTDEHGLVQFSINTTNVMGTSLTVRVNYKDRSPCYGYQWVSEEHEEAHHTAYLVFSPSKSFVHLEPMSHELPCGHTQTVQAHYILNGGTLLGLKKLSFYYLIMAKGGIVRTGTHGLLVKQEDMKGHFSISIPVKSDIAPVARLLIYAVLPTGDVIGDSAKYDVENCLANKVDLSFSPSQSLPASHAHLRVTAAPQSVCALRAVDQSVLLMKPDAELSASSVYNLLPEKDLTGFPGPLNDQDDEDCINRHNVYINGITYTPVSSTNEKDMYSFLEDMGLKAFTNSKIRKPKMCPQLEQYEMHGPSELEGRGSIPENFFGVEGEGEGEGKEEEGLGSVEEPHTKLRKYFPETWIWDLVVVNSAGVAEVGVTVPDTITEWKAGAFCLSEDAGLGISSTASLRAFQPFFVELTMPYSVIRGEAFTLKATVLNYLPKCIRVSVQLEASPAFLAVPVEKEQAPHCICANGRQTVSWAVTPKSLGNVNFTVSAEALESQELCGTEVPSVPEHGRKDTVIKPLLVEPEGLEKETTFNSLLCPSGGEVSEELSLKLPPNVVEESARASVSVLGDILGSAMQNTQNLLQMPYGCGEQNMVLFAPNIYVLDYLNETQQLTPEIKSKAIGYLNTGYQRQLNYKHYDGSYSTFGERYGRNQGNTWLTAFVLKTFAQARAYIFIDEAHITQALIWLSQRQKDNGCFRSSGSLLNNAIKGGVEDEVTLSAYITIALLEIPLTVTHPVVRNALFCLESAWKTAQEGDHGSHVYTKALLAYAFALAGNQDKRKEVLKSLNEEAVKKDNSVHWERPQKPKAPVGHFYEPQAPSAEVEMTSYVLLAYLTAQPAPTSEDLTSATNIVKWITKQQNAQGGFSSTQDTVVALHALSKYGAATFTRTGKAAQVTIQSSGTFSSKFQVDNNNRLLLQQVSLPELPGEYSMKVTGEGCVYLQTSLKYNILPEKEEFPFALGVQTLPQTCDEPKAHTSFQISLSVSYTGSRSASNMAIVDVKMVSGFIPLKPTVKMLERSNHVSRTEVSSNHVLIYLDKVSNQTLSLFFTVLQDVPVRDLKPAIVKVYDYYETDEFAIAEYNAPCSKDLGNADYKDDDDKGASHHHHHH
B4: Variant A2M, bait region SEQ ID NO 139, P01023 24-1474 (protein)
chain: SVSGKPQYMVLVPSLLHTETTEKGCVLLSYLNETVTVSASLESVRGNRSLFTDLEAENDVLHCVAFAVPKSSSNEEVMFLTVQVKGPTQEFKKRTTVMVKNEDSLVFVQTDKSIYKPGQTVKFRVVSMDENFHPLNELIPLVYIQDPKGNRIAQWQSFQLEGGLKQFSFPLSSEPFQGSYKVVVQKKSGGRTEHPFTVEEFVLPKFEVQVTVPKIITILEEEMNVSVCGLYTYGKPVPGHVTVSICRKYSDASDCHGEDSQAFCEKFSGQLNSHGCFYQQVKTKVFQLKRKEYEMKLHTEAQIQEEGTVVELTGRQSSEITRTITKLSFVKVDSHFRQGIPFFGQVRLVDGKGVPIPNKVIFIRGNEANYYSNATTDEHGLVQFSINTTNVMGTSLTVRVNYKDRSPCYGYQWVSEEHEEAHHTAYLVFSPSKSFVHLEPMSHELPCGHTQTVQAHYILNGGTLLGLKKLSFYYLIMAKGGIVRTGTHGLLVKQEDMKGHFSISIPVKSDIAPVARLLIYAVLPTGDVIGDSAKYDVENCLANKVDLSFSPSQSLPASHAHLRVTAAPQSVCALRAVDQSVLLMKPDAELSASSVYNLLPEKDLTGFPGPLNDQDDEDCINRHNVYINGITYTPVSSTNEKDMYSFLEDMGLKAFTNSKIRKPKMCPQLEQYEMHGPSEDLVVQIEGEGEGEGIPENFFGVEAIPMSIPTEPHTKLRKYFPETWIWDLVVVNSAGVAEVGVTVPDTITEWKAGAFCLSEDAGLGISSTASLRAFQPFFVELTMPYSVIRGEAFTLKATVLNYLPKCIRVSVQLEASPAFLAVPVEKEQAPHCICANGRQTVSWAVTPKSLGNVNFTVSAEALESQELCGTEVPSVPEHGRKDTVIKPLLVEPEGLEKETTFNSLLCPSGGEVSEELSLKLPPNVVEESARASVSVLGDILGSAMQNTQNLLQMPYGCGEQNMVLFAPNIYVLDYLNETQQLTPEIKSKAIGYLNTGYQRQLNYKHYDGSYSTFGERYGRNQGNTWLTAFVLKTFAQARAYIFIDEAHITQALIWLSQRQKDNGCFRSSGSLLNNAIKGGVEDEVTLSAYITIALLEIPLTVTHPVVRNALFCLESAWKTAQEGDHGSHVYTKALLAYAFALAGNQDKRKEVLKSLNEEAVKKDNSVHWERPQKPKAPVGHFYEPQAPSAEVEMTSYVLLAYLTAQPAPTSEDLTSATNIVKWITKQQNAQGGFSSTQDTVVALHALSKYGAATFTRTGKAAQVTIQSSGTFSSKFQVDNNNRLLLQQVSLPELPGEYSMKVTGEGCVYLQTSLKYNILPEKEEFPFALGVQTLPQTCDEPKAHTSFQISLSVSYTGSRSASNMAIVDVKMVSGFIPLKPTVKMLERSNHVSRTEVSSNHVLIYLDKVSNQTLSLFFTVLQDVPVRDLKPAIVKVYDYYETDEFAIAEYNAPCSKDLGNADYKDDDDKGASHHHHHH

These binders were tested against Protease Mixtures (assay: cell-based or functional assay).

Binder	Protease Inhibition (% of WT); Protease Mixtures, IGD Substrate
B1	140 % of WT
B2	210 % of WT
B3	140 % of WT
B4	190 % of WT
